Measurements from PMC8367383, “A CTP-dependent gating mechanism enables ParB spreading on DNA” (eLife, 2021).

T1: ParB∆CTD-His6 (Caulobacter crescentus, UniProt B8GW30 11-254)
T1 sequence: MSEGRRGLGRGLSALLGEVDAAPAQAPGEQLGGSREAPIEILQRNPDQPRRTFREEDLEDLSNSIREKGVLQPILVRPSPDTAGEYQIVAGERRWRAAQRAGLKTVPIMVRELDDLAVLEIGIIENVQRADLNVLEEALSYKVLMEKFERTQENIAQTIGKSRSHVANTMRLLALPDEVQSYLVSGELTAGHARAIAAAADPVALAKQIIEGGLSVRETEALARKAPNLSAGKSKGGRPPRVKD


Legend:
CTP = assay: membrane-spotting assay (DRaCALA); details: highest protein concentration point (about 12.5 µM on x axis); 5 nM radiolabeled CTP α-P32, 30 µM unlabeled CTP, 1.5 µM 22 bp parS DNA; parent: est. 13; read off a plot
[1] = biological target: T2, C. crescentus ParB (WT); ParB-His6 (Caulobacter vibrioides, UniProt B8GW30, E102A); assay: DRaCALA membrane-spotting; format: binding; details: labelled compound (5 nM 32P-alpha-CTP with 30 uM unlabelled CTP); 1.5 uM 22 bp parS DNA; 10 mM CaCl2, pH 8.0, room temperature
T2 construct: full length, C-terminal His6 (pET21b), made in E. coli; dimer

[2] = biological target: T3, C. crescentus ParB (WT); ParB-His6 (Caulobacter vibrioides, UniProt B8GW30); assay: EnzChek inorganic phosphate release; format: biochemical; details: 0-1000 uM CTP, 1 uM ParB, 0.5 uM 22 bp parS DNA; Mg2+, pH 8.0, 25 C; rates only in figure
T3 construct: full length, C-terminal His6 (pET21b), made in E. coli; dimer

[3] = biological target: C. crescentus ParB (L224C I304C), dual-cysteine variant (C. crescentus) (UniProt B8GW30); assay: cross-linking; BMOE double crosslinking of 8 µM dual-cysteine ParB variant ± 0.5 µM DNA (22 bp parS, circular 3 kb parS or scrambled parS plasmid) ± 1 mM CTP; denaturing polyacrylamide and agarose gels; post-treatment with Benzonase or TEV protease; protein released from gel slices of the HMW smear
[4] = biological target: the molecule itself; assay: cross-linking; BMOE (1 mM) crosslinking of symmetry-related cysteines; 8 µM single-cysteine ParB variant ± 0.5 µM 22 bp parS DNA ± CTP (0-1000 µM); 10 mM Tris-HCl pH 7.4, 100 mM NaCl, 1 mM MgCl2; 5 min at room temperature; denaturing polyacrylamide gel
ParB∆CTD-His6 = biological target: T1, ParB∆CTD-His6; assay: crystal structure; no nucleotide; BLI: 100 mM Tris-HCl pH 8.0, 100 mM NaCl, 1 mM MgCl2, 0.005% Tween 20, 22 °C, 1 µM ParB dimer (5 µM for Q35C); crosslinking: 8 µM ParB, 0.5 µM DNA, ±1 mM CTP; details: protein: recombinant; tags: C-terminal His6; chain copies: 2; blunt, self-complementary palindrome

T2 sequence (B8GW30 whole entry E102A): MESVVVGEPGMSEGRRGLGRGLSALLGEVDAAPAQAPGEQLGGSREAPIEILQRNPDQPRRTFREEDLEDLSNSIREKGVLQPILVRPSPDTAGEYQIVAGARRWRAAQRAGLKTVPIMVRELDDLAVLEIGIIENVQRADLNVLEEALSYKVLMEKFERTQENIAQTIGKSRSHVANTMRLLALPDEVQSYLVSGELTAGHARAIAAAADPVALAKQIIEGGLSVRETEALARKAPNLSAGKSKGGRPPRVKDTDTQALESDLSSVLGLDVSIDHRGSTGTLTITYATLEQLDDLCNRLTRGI
T3 sequence (B8GW30 whole entry): as the sequence (B8GW30 whole entry E102A) above, with A102E counted along it

Molecule	response (CTP)	other results
C. crescentus ParB (WT) R60A	0.7%	
Nc1ccn([C@@H]2O[C@H](COP(=O)(O)OP(=O)(O)OP(=O)(O)O)[C@@H](O)[C@H]2O)c(=O)n1 [CTP]		DRaCALA membrane-spotting [1]: ParB (E102A) did not hydrolyze CTP (Figure 6B) but nevertheless bound CTP efficiently; EnzChek inorganic phosphate release [2]: The CTPase rates were measured at increasing concentration of CTP
C. crescentus ParB (L224C I304C), dual-cysteine variant (from UniProt B8GW30 1-304)		stoichiometry N [3]: 2
C. crescentus ParB (WT) R104A	0%	
C. crescentus ParB (WT) Q82A	15%	
C. crescentus ParB (Q35C) on a cysteine-less ParB (C297S) background (natural protein, UniProt B8GW30 1-304, looked up, ParB, Caulobacter crescentus, with the stated substitutions; pET21b construct, so probably made in E. coli; source: purified (HIS-Select Cobalt gravity flow column, PD-10)) MESVVVGEPGMSEGRRGLGRGLSALLGEVDAAPACAPGEQLGGSREAPIEILQRNPDQPRRTFREEDLEDLSNSIREKGVLQPILVRPSPDTAGEYQIVAGERRWRAAQRAGLKTVPIMVRELDDLAVLEIGIIENVQRADLNVLEEALSYKVLMEKFERTQENIAQTIGKSRSHVANTMRLLALPDEVQSYLVSGELTAGHARAIAAAADPVALAKQIIEGGLSVRETEALARKAPNLSAGKSKGGRPPRVKDTDTQALESDLSSVLGLDVSIDHRGSTGTLTITYATLEQLDDLSNRLTRGI		binding result [4]: binds
C. crescentus ParB (L224C) on a cysteine-less ParB (C297S) background (natural protein, UniProt B8GW30 1-304, looked up, ParB, Caulobacter crescentus, with the stated substitutions; pET21b construct, so probably made in E. coli; source: purified (HIS-Select Cobalt gravity flow column, PD-10)) MESVVVGEPGMSEGRRGLGRGLSALLGEVDAAPAQAPGEQLGGSREAPIEILQRNPDQPRRTFREEDLEDLSNSIREKGVLQPILVRPSPDTAGEYQIVAGERRWRAAQRAGLKTVPIMVRELDDLAVLEIGIIENVQRADLNVLEEALSYKVLMEKFERTQENIAQTIGKSRSHVANTMRLLALPDEVQSYLVSGELTAGHARAIAAAADPVALAKQIIEGGCSVRETEALARKAPNLSAGKSKGGRPPRVKDTDTQALESDLSSVLGLDVSIDHRGSTGTLTITYATLEQLDDLSNRLTRGI		binding result [4]: binds
C. crescentus ParB (I304C) on a cysteine-less ParB (C297S) background (natural protein, UniProt B8GW30 1-304, looked up, ParB, Caulobacter crescentus, with the stated substitutions; pET21b construct, so probably made in E. coli; source: purified (HIS-Select Cobalt gravity flow column, PD-10)) MESVVVGEPGMSEGRRGLGRGLSALLGEVDAAPAQAPGEQLGGSREAPIEILQRNPDQPRRTFREEDLEDLSNSIREKGVLQPILVRPSPDTAGEYQIVAGERRWRAAQRAGLKTVPIMVRELDDLAVLEIGIIENVQRADLNVLEEALSYKVLMEKFERTQENIAQTIGKSRSHVANTMRLLALPDEVQSYLVSGELTAGHARAIAAAADPVALAKQIIEGGLSVRETEALARKAPNLSAGKSKGGRPPRVKDTDTQALESDLSSVLGLDVSIDHRGSTGTLTITYATLEQLDDLSNRLTRGC		binding result [4]: binds
22 bp parS (dsDNA) DNA 1: GGATGTTTCACGTGAAACATCC DNA 2: GGATGTTTCACGTGAAACATCC		binding result (ParB∆CTD-His6): binds

Now from value to molecule, other results behind:

response (CTP)	Molecule	other results
26%	C. crescentus ParB (WT) E135A	
0.5%	C. crescentus ParB (WT) S74A	
10%	C. crescentus ParB (WT) Q58A	
3.5%	C. crescentus ParB (WT) G79S	
1.5%	C. crescentus ParB (WT) R139A	
24%	C. crescentus ParB (WT) E102A	
0.7%	C. crescentus ParB (WT) N136A	
